Read-outs that look alike come from different tables or passages of the source. Each block holds one substance with its values, some of them ahead of it.
Experiments:
[1] = molecular target: recombinant dimeric (β15-66)2 fragment; assay: ELISA
[2] = molecular target: VE-cad(1-5) fragment (human); assay: SPR
[3] = molecular target: VE-cad(3)His fragment (human); assay: SPR
[4] = molecular target: VE-cad(3)His fragment (human); assay: SPR; remark: listed apart in the source
[5] = molecular target: VE-cad(1-5) fragment (human); assay: SPR; remark: listed apart in the source
[6] = molecular target: VE-cad(3)His fragment (human); assay: SPR; remark: listed apart in the source
[7] = molecular target: fibrin (β15-66)2 15-66 (Homo sapiens) (UniProt P02675); assay: SPR; conditions: cited from earlier work
Sequence of fibrin (β15-66)2 15-66 (Homo sapiens) (P02675 15-66): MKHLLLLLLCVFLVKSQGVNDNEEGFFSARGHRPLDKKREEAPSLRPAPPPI

Sequence of VE-cadherin VE-cad(1-4)His EC1-4 (P33151 48-477): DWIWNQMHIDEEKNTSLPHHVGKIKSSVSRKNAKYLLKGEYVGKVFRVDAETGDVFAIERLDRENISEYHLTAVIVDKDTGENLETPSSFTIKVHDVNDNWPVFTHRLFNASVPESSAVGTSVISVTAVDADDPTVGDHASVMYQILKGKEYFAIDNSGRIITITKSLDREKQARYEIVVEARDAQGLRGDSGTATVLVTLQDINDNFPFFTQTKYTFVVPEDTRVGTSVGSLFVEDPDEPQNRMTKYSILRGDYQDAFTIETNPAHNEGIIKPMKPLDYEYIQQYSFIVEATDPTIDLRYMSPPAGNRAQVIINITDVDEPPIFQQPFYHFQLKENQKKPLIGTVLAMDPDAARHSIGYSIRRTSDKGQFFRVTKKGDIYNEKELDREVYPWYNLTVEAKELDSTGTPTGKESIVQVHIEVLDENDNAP

Kd [1]: 32 nM
Substance: VE-cad(2-4) fragment (domain or fragment)

Kd [2]: 82 nM
Kd [3]: 90 nM
Kd [4]: 89 nM
Kd [5]: 76.7 nM
kon [5]: 678000 M⁻¹ s⁻¹
Kd [6]: 91 nM
koff [6]: 0.0172 s⁻¹
kon [6]: 189000 M⁻¹ s⁻¹
Substance: recombinant dimeric (β15-66)2 fragment (domain or fragment)

Kd [1]: 27 nM
Substance: VE-cad(2-3) fragment (domain or fragment)

Substance: VE-cadherin VE-cad(1-4)His EC1-4 (from UniProt P33151)
Kd [7]: 80 nM

— PMC3307134
